Target: the molecule itself
Test: two-hybrid; MaMTH (mammalian membrane split-ubiquitin two-hybrid) in MaMTH-modified HEK293T cells; bait fused to Cub-GAL4, prey fused to Nub; GAL4-driven luciferase normalised to Renilla

B1: human PFKFB4 as MaMTH fusions (PFKFB4-Cub-GAL4 bait; PFKFB4-Nub prey) (enzyme, UniProt Q16877 1-469, looked up)
chain: MASPRELTQNPLKKIWMPYSNGRPALHACQRGVCMTNCPTLIVMVGLPARGKTYISKKLTRYLNWIGVPTREFNVGQYRRDVVKTYKSFEFFLPDNEEGLKIRKQCALAALRDVRRFLSEEGGHVAVFDATNTTRERRATIFNFGEQNGYKTFFVESICVDPEVIAANIVQVKLGSPDYVNRDSDEATEDFMRRIECYENSYESLDEDLDRDLSYIKIMDVGQSYVVNRVADHIQSRIVYYLMNIHVTPRSIYLCRHGESELNLKGRIGGDPGLSPRGREFAKSLAQFISDQNIKDLKVWTSQMKRTIQTAEALGVPYEQWKVLNEIDAGVCEEMTYEEIQDNYPLEFALRDQDKYRYRYPKGESYEDLVQRLEPVIMELERQENVLVICHQAVMRCLLAYFLDKAAEQLPYLKCPLHTVLKLTPVAYGCKVESIFLNVAAVNTHRDRPQNVDISRPPEEALVTVPAHQ
notes: 6-phosphofructo-2-kinase/fructose-2,6-biphosphatase 4 (PFKFB4), human, inserted in-frame into the MaMTH bait or prey vectors; One molecule for the differently tagged copies of the same protein; The bait copy carries Cub-GAL4; The prey copy carries Nub at its N- or C-terminus (both were tested against the PFKFB4 bait); also called hPFKFB4; source: MaMTH-modified HEK293T, transfected, in cells; not …
For B1, the “fold increase of luciferase expression over PFKFB4-Cub-GAL4 alone (Nub at the C-terminus of the prey)” value was 13 times and the “fold increase of luciferase expression over PFKFB4-Cub-GAL4 alone (Nub at the N-terminus of the prey)” value was 5 times.
